Non-standard residues stand in square brackets, D forms with d. Groups on a side chain read outwards from the residue. Primed or numbered codes have the meaning given here. No end group written: not given here. *: point of attachment. C18 diacid = O=C(O)CCCCCCCCCCCCCCCCC(=O)*; Palmitoyl = CCCCCCCCCCCCCCCC(=O)*; PEG2′ = not defined here; Aib = CC(C)(N)C(=O)O
Target: human glucagon receptor (human, UniProt P47871 26-477)
Experiment: cell-based or functional assay

Binder | GCGR (EC50, nM), CRE-luciferase in HEK-293 cells
H[dS]QGTFTSDYSK([PEG2′-PEG2′-Palmitoyl])KLD[Aib]RRAQDFVQWLMNTGGPSSGAPPPS-NH2 [Compound 15] | 0.6 nM
H[dS]QGTFTSDYSK([PEG2′-PEG2′-C18 diacid])KLD[Aib]RRAQDFVQWLMNTGGPSSGAPPPS-NH2 [Compound 16] | 0.2 nM
H[dS]QGTFTSDYSKYLDEKAAK([PEG2′-PEG2′-Palmitoyl])EFIEWLLNGGPSSGAPPPS-NH2 [Compound 23] | 0.43 nM
H[dS]QGTFTSDYSK([PEG2′-PEG2′-Glu-C18 diacid])KLD[Aib]RRAQDFVQWLMNTGGPSSGAPPPS-NH2 [Compound 18] | 0.18 nM
H[dS]QGTFTSDK([PEG2′-PEG2′-Palmitoyl])SKYLD[Aib]RRAQDFVQWLMNTGGPSSGAPPPS-NH2 [Compound 5] | 0.43 nM
HSQGTFTSDYSKYLDSRRAQDFVQWLMNTKRNKNNIA (ligand) [Oxyntomodulin] | 6.2 nM
H[Aib]QGTFTSDK([PEG2′-PEG2′-Glu-Palmitoyl])SKYLDERRAQDFVQWLLDGGPSSGAPPPS-NH2 [Compound 19] | 0.56 nM
H[dS]QGTFTSDYSKYLDSK([PEG2′-PEG2′-Glu-C18 diacid])AAHDFVEWLLRA-NH2 [Compound 1] | 0.54 nM
H[dS]QGTFTSDYSKYLDK([PEG2′-PEG2′-Glu-C18 diacid])RRAQDFVQWLMNTGGPSSGAPPPS-NH2 [Compound 11] | 0.18 nM
H[dS]QGTFTSDYSKYLD[Aib]K([PEG2′-PEG2′-C18 diacid])RAQDFVQWLMNTGGPSSGAPPPS-NH2 [Compound 12] | 0.15 nM
H[dS]QGTFTSDYSK([PEG2′-PEG2′-Glu-Palmitoyl])KLD[Aib]RRAQDFVQWLMNTGGPSSGAPPPS-NH2 [Compound 17] | 0.58 nM
H[Aib]QGTFTSDK([PEG2′-PEG2′-Glu-Palmitoyl])SKYLD[Aib]RRAQDFVQWLLDGGPSSGAPPPS-NH2 [Compound 21] | 0.66 nM
H[dS]QGTFTSDYSKYLDK([PEG2′-PEG2′-Glu-Palmitoyl])RRAQDFVQWLMNTGGPSSGAPPPS-NH2 [Compound 10] | 0.11 nM
H[dS]QGTFTSDK([PEG2′-PEG2′-Glu-Palmitoyl])SKYLD[Aib]RRAQDFVQWLMNTGGPSSGAPPPS-NH2 [Compound 7] | 0.34 nM
H[dS]QGTFTSDYSKYLD[Aib]K([PEG2′-PEG2′-Glu-C18 diacid])RAQDFVQWLMNTGGPSSGAPPPS-NH2 [Compound 14] | 0.19 nM
H[Aib]QGTFTSDK([PEG2′-PEG2′-Glu-C18 diacid])SKYLD[Aib]RRAQDFVQWLLDGGPSSGAPPPS-NH2 [Compound 22] | 0.32 nM
H[dS]QGTFTSDK([PEG2′-PEG2′-C18 diacid])SKYLD[Aib]RRAQDFVQWLMNTGGPSSGAPPPS-NH2 [Compound 6] | 0.33 nM
H[dS]QGTFTSDYSKYLDEKAAK([PEG2′-PEG2′-Glu-Palmitoyl])EFIEWLLNGGPSSGAPPPS-NH2 [Compound 24] | 0.58 nM
H[dS]QGTFTSDYSKYLDK([PEG2′-PEG2′-C18 diacid])RRAQDFVQWLMNTGGPSSGAPPPS-NH2 [Compound 9] | 0.18 nM
H[dS]QGTFTSDK([PEG2′-PEG2′-Glu-C18 diacid])SKYLD[Aib]RRAQDFVQWLMNTGGPSSGAPPPS-NH2 [Compound 8] | 0.18 nM
H[dS]QGTFTSDYSKYLDEKAAK([PEG2′-PEG2′-Glu-C18 diacid])EFIEWLLNGGPSSGAPPPS-NH2 [Compound 4] | 0.39 nM
H[Aib]QGTFTSDK([PEG2′-PEG2′-Glu-C18 diacid])SKYLDERRAQDFVQWLLDGGPSSGAPPPS-NH2 [Compound 20] | 0.48 nM
H[dS]QGTFTSDYSKYLDSK([PEG2′-PEG2′-Glu-C18 diacid])AAHDFVEWLLNGGPSSGAPPPS-NH2 [Compound 3] | 1.02 nM
H[dS]QGTFTSDYSKYLDEKAAK([PEG2′-PEG2′-Glu-C18 diacid])EFIEWLLRA-NH2 [Compound 2] | 2.8 nM
H[dS]QGTFTSDYSKYLD[Aib]K([PEG2′-PEG2′-Glu-Palmitoyl])RAQDFVQWLMNTGGPSSGAPPPS-NH2 [Compound 13] | 0.16 nM

Target: human glucagon-like peptide-1 receptor (human, UniProt P43220 24-463)
Sequence (P43220 24-463): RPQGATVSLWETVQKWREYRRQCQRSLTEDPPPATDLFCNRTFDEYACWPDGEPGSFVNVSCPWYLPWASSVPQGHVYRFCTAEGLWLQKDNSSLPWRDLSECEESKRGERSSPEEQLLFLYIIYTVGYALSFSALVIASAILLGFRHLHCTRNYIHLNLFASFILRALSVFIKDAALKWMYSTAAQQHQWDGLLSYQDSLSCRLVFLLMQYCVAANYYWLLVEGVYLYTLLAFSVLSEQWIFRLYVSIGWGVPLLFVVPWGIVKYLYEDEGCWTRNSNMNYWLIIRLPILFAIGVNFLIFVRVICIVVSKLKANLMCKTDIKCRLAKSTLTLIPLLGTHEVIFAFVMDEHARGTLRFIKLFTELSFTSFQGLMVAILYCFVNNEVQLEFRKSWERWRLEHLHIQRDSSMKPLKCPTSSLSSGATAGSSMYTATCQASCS
Experiment: cell-based or functional assay

Binder | GLP-1R (EC50, nM), CRE-luciferase in HEK-293 cells
H[dS]QGTFTSDYSK([PEG2′-PEG2′-Palmitoyl])KLD[Aib]RRAQDFVQWLMNTGGPSSGAPPPS-NH2 [Compound 15] | 1.5 nM
H[dS]QGTFTSDYSK([PEG2′-PEG2′-C18 diacid])KLD[Aib]RRAQDFVQWLMNTGGPSSGAPPPS-NH2 [Compound 16] | 0.6 nM
H[dS]QGTFTSDYSKYLDEKAAK([PEG2′-PEG2′-Palmitoyl])EFIEWLLNGGPSSGAPPPS-NH2 [Compound 23] | 0.13 nM
H[dS]QGTFTSDYSK([PEG2′-PEG2′-Glu-C18 diacid])KLD[Aib]RRAQDFVQWLMNTGGPSSGAPPPS-NH2 [Compound 18] | 0.76 nM
H[dS]QGTFTSDK([PEG2′-PEG2′-Palmitoyl])SKYLD[Aib]RRAQDFVQWLMNTGGPSSGAPPPS-NH2 [Compound 5] | 0.06 nM
H[Aib]QGTFTSDK([PEG2′-PEG2′-Glu-Palmitoyl])SKYLDERRAQDFVQWLLDGGPSSGAPPPS-NH2 [Compound 19] | 0.14 nM
H[dS]QGTFTSDYSKYLDSK([PEG2′-PEG2′-Glu-C18 diacid])AAHDFVEWLLRA-NH2 [Compound 1] | 0.23 nM
H[dS]QGTFTSDYSKYLDK([PEG2′-PEG2′-Glu-C18 diacid])RRAQDFVQWLMNTGGPSSGAPPPS-NH2 [Compound 11] | 0.15 nM
H[dS]QGTFTSDYSKYLD[Aib]K([PEG2′-PEG2′-C18 diacid])RAQDFVQWLMNTGGPSSGAPPPS-NH2 [Compound 12] | 0.32 nM
H[dS]QGTFTSDYSK([PEG2′-PEG2′-Glu-Palmitoyl])KLD[Aib]RRAQDFVQWLMNTGGPSSGAPPPS-NH2 [Compound 17] | 0.68 nM
H[Aib]QGTFTSDK([PEG2′-PEG2′-Glu-Palmitoyl])SKYLD[Aib]RRAQDFVQWLLDGGPSSGAPPPS-NH2 [Compound 21] | 0.15 nM
H[dS]QGTFTSDYSKYLDK([PEG2′-PEG2′-Glu-Palmitoyl])RRAQDFVQWLMNTGGPSSGAPPPS-NH2 [Compound 10] | 0.35 nM
H[dS]QGTFTSDYSKYLD[Aib]K([PEG2′-PEG2′-Glu-C18 diacid])RAQDFVQWLMNTGGPSSGAPPPS-NH2 [Compound 14] | 0.4 nM
H[Aib]QGTFTSDK([PEG2′-PEG2′-Glu-C18 diacid])SKYLD[Aib]RRAQDFVQWLLDGGPSSGAPPPS-NH2 [Compound 22] | 0.06 nM
H[dS]QGTFTSDK([PEG2′-PEG2′-C18 diacid])SKYLD[Aib]RRAQDFVQWLMNTGGPSSGAPPPS-NH2 [Compound 6] | 0.1 nM
H[dS]QGTFTSDYSKYLDEKAAK([PEG2′-PEG2′-Glu-Palmitoyl])EFIEWLLNGGPSSGAPPPS-NH2 [Compound 24] | 0.16 nM
H[dS]QGTFTSDYSKYLDK([PEG2′-PEG2′-C18 diacid])RRAQDFVQWLMNTGGPSSGAPPPS-NH2 [Compound 9] | 0.52 nM
H[dS]QGTFTSDK([PEG2′-PEG2′-Glu-C18 diacid])SKYLD[Aib]RRAQDFVQWLMNTGGPSSGAPPPS-NH2 [Compound 8] | 0.2 nM
H[dS]QGTFTSDYSKYLDEKAAK([PEG2′-PEG2′-Glu-C18 diacid])EFIEWLLNGGPSSGAPPPS-NH2 [Compound 4] | 0.13 nM
H[Aib]QGTFTSDK([PEG2′-PEG2′-Glu-C18 diacid])SKYLDERRAQDFVQWLLDGGPSSGAPPPS-NH2 [Compound 20] | 0.09 nM
H[dS]QGTFTSDYSKYLDSK([PEG2′-PEG2′-Glu-C18 diacid])AAHDFVEWLLNGGPSSGAPPPS-NH2 [Compound 3] | 0.59 nM
H[dS]QGTFTSDYSKYLDEKAAK([PEG2′-PEG2′-Glu-C18 diacid])EFIEWLLRA-NH2 [Compound 2] | 0.39 nM
H[dS]QGTFTSDYSKYLD[Aib]K([PEG2′-PEG2′-Glu-Palmitoyl])RAQDFVQWLMNTGGPSSGAPPPS-NH2 [Compound 13] | 0.44 nM
